Source: patent US20230279138A1 (CHIA TAI TIANQING PHARMACEUTICAL GROUP, published 2023)

Legend:
[1] = molecular target: T1, CD20 on Raji cells (CD20+/CD3- cells) (human, UniProt P11836 1-297); assay: flow cytometry on Raji cells (CD20+/CD3-)
T1 construct: whole, on cells; Raji, Ramos and NAMALWA in the killing assays; also called Ramos; NAMALWA
T1 sequence (looked up): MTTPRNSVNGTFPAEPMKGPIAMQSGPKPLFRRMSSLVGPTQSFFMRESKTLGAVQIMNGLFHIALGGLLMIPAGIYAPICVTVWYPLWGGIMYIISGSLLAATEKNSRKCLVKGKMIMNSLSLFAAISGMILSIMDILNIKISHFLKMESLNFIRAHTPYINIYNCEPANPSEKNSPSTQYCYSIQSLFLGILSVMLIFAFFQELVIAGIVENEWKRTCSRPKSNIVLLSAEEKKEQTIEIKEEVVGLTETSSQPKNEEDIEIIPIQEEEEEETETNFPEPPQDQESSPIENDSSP
Procedure: (§1) After incubation, the cells were washed twice with cold 1% BSA/1×PBS. […] After being washed twice, the geometric mean fluorescence (MFI) of the stained cells was measured using a FACS Canto II […] (BD Biosciences). Wells containing no antibody or containing only fluorescent secondary antibody were used to establish background fluorescence. The EC50 values for cell binding were determined using GraphPad Prism 5 software (GraphPad Software, La Jolla, Calif.); each value was calculated by four-parameter non-linear regression analysis.

[2] = molecular target: T2, CD3 on Jurkat cells (CD3+/CD20- cells) (human, UniProt P07766 23-207; P04234 22-171; P09693 23-182); assay: flow cytometry on Jurkat 2B8 cells (CD3+/CD20-)
T2 construct: whole, on cells; also called Jurkat 2B8
Procedure: as §1

T2 sequence (P07766 23-207, chain 1 of 3): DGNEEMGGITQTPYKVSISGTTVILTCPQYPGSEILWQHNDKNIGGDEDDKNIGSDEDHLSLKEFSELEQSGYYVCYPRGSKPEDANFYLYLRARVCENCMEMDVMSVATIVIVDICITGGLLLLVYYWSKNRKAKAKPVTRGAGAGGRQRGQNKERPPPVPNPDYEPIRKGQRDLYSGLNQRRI
T2 sequence (P04234 22-171, chain 2 of 3): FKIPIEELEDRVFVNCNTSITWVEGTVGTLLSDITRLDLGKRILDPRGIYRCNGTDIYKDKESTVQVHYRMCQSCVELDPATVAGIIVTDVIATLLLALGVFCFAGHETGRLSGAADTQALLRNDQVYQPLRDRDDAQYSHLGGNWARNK
T2 sequence (P09693 23-182, chain 3 of 3): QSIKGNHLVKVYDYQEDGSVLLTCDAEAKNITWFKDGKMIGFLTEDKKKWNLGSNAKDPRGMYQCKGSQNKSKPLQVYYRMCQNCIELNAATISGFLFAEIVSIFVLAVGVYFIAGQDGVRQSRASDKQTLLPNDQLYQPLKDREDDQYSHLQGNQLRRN

B1: Anti-CD20. IgG4 (U2) (antibody, V domains shown)
VH: QVQLQQPGAELVKPGASVKMSCKASGYTFTSYNMHWVKQTPGRGLEWIGAIYPGNGDTSYNQKFKGKATLTADKSSSTAYMQLSSLTSEDSAVYYCARSTYYGGDWYFNVWGAGTTVTVSA
VL: QIVLSQSPAILSASPGEKVTMTCRASSSVSYIHWFQQKPGSSPKPWIYATSNLASGVPVRFSGSGSGTSYSLTISRVEAEDAATYYCQQWTSNPPTFGGGTKLEIK
notes: Tested as IgG4; also called parental anti-CD20 antibody U2
EC50 [1]: 11.4 nM | TOP MFI [1]: 53500 MFI

B2: W3278-T2U3.E17R-1.uIgG4.SP (bispecific antibody)
heavy 1: QVQLVQSGAEVKKPGSSVKVSCKASGYSFTTYYIHWVRQAPGQGLEWMGWIFPGNDNIKYSEKFKGRVTITADKSTSTAYMELSSLRSEDTAVYYCAIDSVSIYYFDYWGQGTLVTVSSASTKGPSVFPLAPCSRSTSESTAALGCLVKDYFPEPVTVSWNSGALTSGVHTFPAVLQSSGLYSLSSVVTVPSSSLGTKTYTCNVDHKPSNTKVDKRVESKYGPPCPPCPAPEFLGGPSVFLFPPKPKDTLMISRTPEVTCVVVDVSQEDPEVQFNWYVDGVEVHNAKTKPREEQFNSTYRVVSVLTVLHQDWLNGKEYKCKVSNKGLPSSIEKTISKAKGQPREPQVYTLPPCQEEMTKNQVSLWCLVKGFYPSDIAVEWESNGQPENNYKTTPPVLDSDGSFFLYSRLTVDKSRWQEGNVFSCSVMHEALHNHYTQKSLSLSLG
heavy 2: EVQLVESGGGLVQPGRSLRLSCAASGFTFNDYAMHWVRQAPGKGLEWVSTISWNSGSIGYADSVKGRFTISRDNAKKSLYLQMNSLRAEDTALYYCAKDIQYGNYYYGMDVWGQGTTVTVLEDLKNVFPPEVAVFEPSEAEISHTQKATLVCLATGFYPDHVELSWWVNGKEVHSGVCTDPQPLKEQPALQDSRYALSSRLRVSATFWQNPRNHFRCQVQFYGLSENDEWTQDRAKPVTQIVSAEAWGRYGPPCPPCPAPEFLGGPSVFLFPPKPKDTLMISRTPEVTCVVVDVSQEDPEVQFNWYVDGVEVHNAKTKPREEQFNSTYRVVSVLTVLHQDWLNGKEYKCKVSNKGLPSSIEKTISKAKGQPREPQVCTLPPSQEEMTKNQVSLSCAVKGFYPSDIAVEWESNGQPENNYKTTPPVLDSDGSFFLVSRLTVDKSRWQEGNVFSCSVMHEALHNHYTQKSLSLSLG
light 1: not shown
light 2: EIVLTQSPATLSLSPGERATLSCRASQSVSSYLAWYQQKPGQAPRLLIYDASNRATGIPARFSGSGSGTDFTLTISSLEPEDFAVYYCQQRSNWPITFGQGTRLEIKPDIQNPDPAVYQLRDSKSSDKSVCLFTDFDSQTQVSQSKDSDVYITDKCVLDMRSMDFKSNSAVAWSQKSDFACANAFQNSIIPEDTFFPSPESS
notes: Human IgG4 with S228P, knobs-into-holes; WuXiBody format, in which one arm carries TCR constant domains; also called W3278 BsAb; WBP3278 BsAb
EC50 [2]: 129 nM | TOP MFI [2]: 3880 MFI | EC50 [1]: 13.2 nM | TOP MFI [1]: 68500 MFI

B3: Anti-CD3 Fab (T2) (Fab, V domains shown)
VH: QVQLVQSGAEVKKPGSSVKVSCKASGYSFTTYYIHWVRQAPGQGLEWMGWIFPGNDNIKYSEKFKGRVTITADKSTSTAYMELSSLRSEDTAVYYCAIDSVSIYYFDYWGQGTLVTVSS
VL: DIVMTQSPDSLAVSLGERATINCKSSQSLLNSRTRKNYLAWYQQKPGQPPKLLIYWASTRKSGVPDRFSGSGSGTDFTLTISSLQAEDVAVYYCTQSFILRTFGGGTKVEIK
notes: Parental antibody tested as a Fab; The variable domains are tied to it through the clone naming: T2 is the anti-CD3 portion of W3278-T2U3 and W3278-U3T2; also called parental anti-CD3 antibody T2
EC50 [2]: 33 nM | TOP MFI [2]: 3210 MFI

B4: Anti-CD3 Fab (T3) (Fab, V domains shown)
VH: QVQLVQSGAEVKKPGSSVKVSCKASGFAFTDYYIHWVRQAPGQGLEWMGWISPGNVNTKYNENFKGRVTITADKSTSTAYMELSSLRSEDTAVYYCARDGYSLYYFDYWGQGTLVTVSS
VL: DIVMTQSPDSLAVSLGERATINCKSSQSLLNSRTRKNYLAWYQQKPGQPPKLLIYWASTRQSGVPDRFSGSGSGTDFTLTISSLQAEDVAVYYCTQSHTLRTFGGGTKVEIK
notes: Parental antibody tested as a Fab; The variable domains are tied to it through the clone naming: T3 is the anti-CD3 portion of W3278-T3U2 and W3278-U2T3; also called parental anti-CD3 antibody T3
EC50 [2]: 43.7 nM | TOP MFI [2]: 3800 MFI
